This is an account of results in patent US10246721B2, “Sugar transporters” (CARNEGIE INSTITUTION OF WASHINGTON, priority 2009, dated 2019).

Assay [1] addresses T1, SWEET1 (Arabidopsis thaliana, UniProt Q8L9J7).
T1 sequence (Q8L9J7 1-247): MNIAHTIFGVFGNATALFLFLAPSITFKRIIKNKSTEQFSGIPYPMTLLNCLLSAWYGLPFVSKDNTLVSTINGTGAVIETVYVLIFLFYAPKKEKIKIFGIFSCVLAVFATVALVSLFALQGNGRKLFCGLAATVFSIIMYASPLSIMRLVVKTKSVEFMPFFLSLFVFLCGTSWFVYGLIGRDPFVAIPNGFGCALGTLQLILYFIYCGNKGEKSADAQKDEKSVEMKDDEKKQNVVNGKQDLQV
Put plainly: FRET glucose sensor FLIPglu600μΔ13V co-transfected with SWEET1 in HEK293T cells, cytochalasin B. Also noted: SWEET1, SWEET8 and OsSWEET11 ORFs were amplified by RT-PCR using specific primers from Arabidopsis and rice, respectively; expressed in transfected cells; host or cells: HEK293T. The class given is cell-based. To be noted: 20 μM cytochalasin B. The method, then:
Similar results were obtained for several Arabidopsis paralogs of this gene family.
FRET analysis. Cell culture, transfection, image acquisition and FRET analysis were performed as described previously.
To identify novel glucose transporters from the reference plant Arabidopsis, genes encoding uncharacterized polytopic membrane proteins from the plant membrane protein database Aramemnon, available on the internet at “aramemnon.botanik.uni-koeln.de”,—were screened using a mammalian expression system. Candidate genes were coexpressed with a high-sensitivity FRET glucose sensor (i.e. FLIPglu600μΔ13V) in human embryonic kidney HEK293T cells, which are characterized by low endogenous glucose uptake activity. […] To determine whether SWEET1 can also mediate efflux from the cytosol, we expressed the FRET glucose sensor FLIPglu600μΔ13V^ER in the lumen of the endoplasmic reticulum (ER; FIG. 9B). Topologically, uptake across the plasma membrane (PM) is initiated from the extracellular side of the carrier, while ‘export’ to the ER is initiated from the cytoplasmic side of the transporter (FIG. 9C). […] SWEET1 may thus function as a glucose uniporter, for which the direction of transport depends only on the glucose gradient across the membrane. […]

Assay [2] concerns the target T1, SWEET1. Briefly: Inhibition of SWEET1-mediated glucose uptake in yeast EBY4000 by competing sugars. The class given is cell-based. Also noted: SWEET1, SWEET8 and OsSWEET11 ORFs were amplified by RT-PCR using specific primers from Arabidopsis and rice, respectively. As to conditions: 5 mM D-glucose; competitor at 10-fold excess (50 mM). The protocol: Competitors were added at 10-fold excess (final concentration 50 mM). Relative activity was normalized to D-glucose uptake rate [100%]. Data are mean±S.D.
Yeast uptake. Yeast cells were grown in SD medium supplemented 2% maltose and auxotrophic markers. Cells were harvested at OD600 0.5-0.7 by centrifugation, and washed twice in ice-cold distilled water. Cell pellets were weighed after the supernatant had been removed. Cells were resuspended 5-10% (w/v) in 40 mM potassium phosphate buffer, pH 6.0. Cells were pre-incubated in potassium phosphate buffer for 5 min at 30° C. For each reaction, 330 μl pre-warmed buffer containing 20 mM glucose (0.55 μCi D-[U-^14C] glucose; 590 KBq/μmol, Amersham Pharmacia Biotech Inc.) was added to an equal volume of cells. 120 μl aliquot were withdrawn and transferred to the ice-cold water. Cells were harvested by vacuum filtration onto a glassfiber filters (GF/C, Whatman), and washed twice in 10 ml ice-cold water. Filters were transferred to scintillation vials containing 5 ml of Ultima Gold XR Scintillator liquid (Perkin Elmer). Radioactivity taken up by the cells was measured by liquid scintillation spectrometry. To determine substrate specificity for SWEET1 compared to D-glucose, a ten-fold excess of competing sugar species was used. To determine the pH-dependence of SWEET1 activity, 40 mM potassium phosphate uptake buffer at specified pH was used. […]

The target of assay [3] is T2, SGLT1 (Homo sapiens, UniProt P13866).
T2 construct: The ORF of SGLT1 (Invitrogen, Carlsbad, Calif.) was amplified by PCR and cloned into pCR2.1-TOPO; host or cells: Xenopus laevis oocytes injected with cRNA from pOO2
T2 sequence (P13866 1-664): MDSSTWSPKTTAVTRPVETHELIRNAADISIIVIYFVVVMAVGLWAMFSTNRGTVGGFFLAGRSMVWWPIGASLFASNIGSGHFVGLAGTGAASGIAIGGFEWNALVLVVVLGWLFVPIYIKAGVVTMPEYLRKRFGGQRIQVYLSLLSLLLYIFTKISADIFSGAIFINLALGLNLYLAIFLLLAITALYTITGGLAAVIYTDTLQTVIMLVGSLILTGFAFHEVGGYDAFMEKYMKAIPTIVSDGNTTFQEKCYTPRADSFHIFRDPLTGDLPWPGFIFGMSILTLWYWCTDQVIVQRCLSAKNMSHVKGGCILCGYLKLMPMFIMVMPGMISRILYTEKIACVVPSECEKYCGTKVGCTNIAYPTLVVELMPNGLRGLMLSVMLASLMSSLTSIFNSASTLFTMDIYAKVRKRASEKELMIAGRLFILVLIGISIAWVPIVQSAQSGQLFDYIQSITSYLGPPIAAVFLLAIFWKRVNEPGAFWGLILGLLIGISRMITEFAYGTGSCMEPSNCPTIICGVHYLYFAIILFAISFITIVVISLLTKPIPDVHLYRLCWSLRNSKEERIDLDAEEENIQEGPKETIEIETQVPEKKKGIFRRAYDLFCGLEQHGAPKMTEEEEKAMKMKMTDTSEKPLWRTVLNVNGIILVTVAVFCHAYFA
Briefly: Coexpression with SGLT1 in Xenopus oocytes, glucose accumulation. The class given is cell-based. As to conditions: coexpressed with SGLT1. The text has this:
Data are mean±SE, n=7. Inset indicates concentrative uptake of glucose by SGLT 1 and glucose efflux (‘leak’) caused by OsSWEET11.
All experiments were repeated independently at least 6 times. Error bars are means±SD.
Human SGLT1 sodium glucose cotransporter (“S”) which has been previously shown to be a secondary active glucose importer. SGLT1 is […] expressed in Xenopus oocytes and can mediate uptake of 14C labelled glucose into the oocyte. When RAG1AP1 (“R”) is coexpressed, less uptake is seen in the oocytes. This is compatible with a glucose ‘leak’ due to RAG1AP1 activity that prevents high accumulation of glucose in the SGLT1 expressing cells.
Tracer uptake in Xenopus oocytes. The assay was performed with modification as described in Detaille et al. Two days after injection, groups of 7 to 16 oocytes were transferred into tubes containing 200 μL MBS and 1 mM D-glucose (4 μCi/ml D-[^14C(U)]-glucose; 319 mCi/mmol, PerkinElmer). After incubation at 20° C. for one hour, and the cells were washed by adding 1 ml ice-cold MBS. Incubation was stopped by adding ice-cold MBS buffer. The ooctyes were washed three times in ice-cold MBS buffer. The cells were solubilized with 100 μl 1% (w/v) SDS, and measured individually.
The ORF of SGLT1 (Invitrogen, Carlsbad, Calif.) was amplified by PCR and cloned into pCR2.1-TOPO (Invitrogen). […]

The nature of assay [4]: 14C glucose uptake data for C. elegans homologs (FIG. 42). The assay is classed as cell-based. To be noted: 1 mM and 10 mM glucose. From the text: FIGS. 42A and 42B show the 14C glucose uptake data for five of the C. elegans homologs.
At least 3, 4 nd 5 are active. (code for names of C elegans genes:Ce1: C06G8.1; Ce2: K06A4.4; Ce3: Y39A1A.8; Ce4: K11D12.5; Ce5: K02D7.5; (worm mutants of Ce5: K02D7.5 show increased fat accumulation, consistent with reduced efflux of glucose from these cells).

Assay [5] concerns Xenopus oocytes. Briefly: Tracer [14C]-glucose uptake in Xenopus oocytes. As to conditions: 1 mM D-glucose, 1 h. The class given is cell-based, Xenopus laevis. The method, then: Xenopus oocytes isolation and RNA injection. After linearization of the pOO2 plasmids with MluI, capped cRNAs were synthesized in vitro by SP6 RNA polymerase using mMESSAGE mMACHINE kit (Ambion, Inc., Austin, Tex.). Xenopus laevis oocytes were kindly provided by M. Goodman (Stanford University). Microinjection was carried out as described by Ballatori et al.. 25 ng to 50 ng of each cRNA was injected into healthy-looking oocytes (RNAse-free water was used as control). The injected oocytes were then maintained at 18° C. in modified Barth's saline (MBS: (in mM) 88 NaCl, 1 KCl, 2.4 NaHCO3, 0.82 MgSO4, 0.33 Ca(NO3)2, 0.41 CaCl2, and 20 HEPES-Tris, pH 7.5) with 100 μM gentamycin, 100 U/ml penicillin and 100 μM streptomycin solution for 2-3 d. The incubation buffer was changed once per day.
Tracer uptake in Xenopus oocytes. The assay was performed with modification as described in Detaille et al. Two days after injection, groups of 7 to 16 oocytes were transferred into tubes containing 200 μL MBS and 1 mM D-glucose (4 μCi/ml D-[^14C(U)]-glucose; 319 mCi/mmol, PerkinElmer). After incubation at 20° C. for one hour, and the cells were washed by adding 1 ml ice-cold MBS. Incubation was stopped by adding ice-cold MBS buffer. The ooctyes were washed three times in ice-cold MBS buffer. The cells were solubilized with 100 μl 1% (w/v) SDS, and measured individually. […]

The subject of assay [6] is Xenopus oocytes. Briefly: Tracer efflux assay in Xenopus oocytes injected with [14C]-glucose. The class given is cell-based, Xenopus laevis. To be noted: S.E., n>7. The method, then:
50 nl of 10 mM radiolabeled glucose (0.18 μCi/μl) were injected and radiotracer efflux was measured over time. Data are mean±SE (n>10 cells).
Tracer efflux assay in Xenopus oocytes. Efflux was measured essentially as described. Three days after cRNA injection, oocytes were injected with 50 nl solution containing 10 mM D-glucose with 0.18 μCi/μl D-[^14C(U)]-glucose. Cells were immediately washed once in MBS. At defined time points, the reaction buffer (950 μl) was removed for scintillation counting and replaced with fresh medium. Finally, the oocytes were solubilized with 1% SDS and analyzed for radioactivity.
The ORF of SGLT1 (Invitrogen, Carlsbad, Calif.) was amplified by PCR and cloned into pCR2.1-TOPO (Invitrogen). The SGLT1 ORF was excised with EcoRI/XhoI and cloned into the corresponding sites in pOO2. The splice variant RAG1AP1-1 in pDNR-LIB (Clone ID: 4076256, Open Biosystems, Huntsville, Ala.) was restricted with EcoRI/XhoI and cloned into pOO2. RAG1AP1-2 in pCMV-SPORT6 (Clone ID: 3896154, Open Biosystems, Huntsville, Ala.) was transferred into the pOO2-GW (D. Loqué, unpublished) by in vitro LR recombination (Gateway). RAG1AP1-3aa was mutated to Y216A, L218A, L219A (putative internalization motifs) by site-directed mutagenesis and cloned by in vitro BP recombination in pDONR221-f1 and further mobilized into pOO2-GW by LR reaction. […]

“Also recorded” adds a separate entry of the source.

`C=C1[C@@H](C)[C@H]2[C@H](Cc3ccccc3)NC(=O)[C@]23OC(=O)/C=C/[C@H](O)CCC[C@@H](C)C/C=C/[C@H]3[C@@H]1O` [cytochalasin B]: the “effect of cytochalasin B on SWEET1 (GLUE1)-mediated glucose uptake” value in assay [1] is on record as “insensitive; also recorded: did not affect; also recorded: insensitivity”.

Regarding `CO[C@@H]([C@H](O)[C@H](O)CO)[C@@H](O)C=O` [3-O-methylglucose], in assay [2], the “inhibition of SWEET1-mediated glucose uptake by competitor sugar” value is reported as “marginally inhibited”.

B1: CeSWEET1: C. elegans SWEET homolog (protein, UniProt O45102 1-299, looked up)
Sugar transporter SWEET1: MLEVVLQVLSISAITTTIALFFCGIPICMQIRRQGAVGDISGVPFLMGVLGGSFWLRYGLLKMDYVMIIVNVVGVACMAFYCVFFLIYSLPKKTFTCQLILVTSTIGGMVLWIALKPNLDYLGVICMTFNIMNFGAPLAGLGVVLKNREVSTLPLPMCVANFLVSSQWCLYGNLVSDIYIIIPNGIGMFLAIVQLALFVVLPIRENEKSPLEKLASWFTGRDSKVKDLERGDCIVSSPPSSPQKVPNETRSDVEDKFDKLMAETSSTIPSDSRRGSMGSPPSYKSRSSSDPDLSSIQSP
Take B1: the “effect of coexpression on SGLT1-mediated glucose accumulation in oocytes” value in assay [3] is reported as “counteract secondary active glucose accumulation”. Further, in assay [4], the “14C glucose uptake activity” value is “active”. Further, the “[14C]-glucose uptake into Xenopus oocytes” value in assay [5] is “mediates glucose uptake; also recorded: weak, but significant glucose uptake”.

B2: RAG1AP1: human homolog of the SWEET sugar transporters (SLC50) (protein)
chain: MEAGGFLDSLIYGACVVFTLGMFSAGLSDLRHMRMTRSVDNVQFLPFLTTEVNNLGWLSYGALKGDGILIVVNTVGAALQTLYILAYLHYCPRKRVVLLQTATLLGVLLLGYGYFWLLVPNPEARLQQLGLFCSVFTISMYLSPLADLAKVIQTKSTQCLSYPLTIATLLTSASWCLYGFRLRDPYIMVSNFPGIVTSFIRFWLFWKYPQEQDRNYWLLQT
As for B2, in assay [3], the “effect of coexpression on SGLT1-mediated glucose accumulation in oocytes” value is “less uptake; also recorded: counteract secondary active glucose accumulation; also recorded: counteracted SGLT1-mediated glucose accumulation”. In assay [6], the “% glucose released within 2 min” value is listed as 5.27±0.29%. Also, in assay [5], the “[14C]-glucose uptake into Xenopus oocytes” value is “unable to mediate glucose accumulation”.
